How the values were obtained:
[1] = target: FLT3 on the cell surface (human leukemia cell lines and patient cells) (human) (UniProt P36888); test: flow cytometry, biotinylated antibody 10 ug/ml + Streptavidin-PE, SKM-1 cells (AML)
[2] = target: FLT3 on the cell surface (human leukemia cell lines and patient cells) (human) (UniProt P36888); test: flow cytometry, biotinylated antibody 10 ug/ml + Streptavidin-PE, REH cells (ALL)
[3] = target: FLT3 on the cell surface (human leukemia cell lines and patient cells) (human) (UniProt P36888); test: flow cytometry, biotinylated antibody 10 ug/ml + Streptavidin-PE, MONOMAC-1 cells (AML)
[4] = target: FLT3 on the cell surface (human leukemia cell lines and patient cells) (human) (UniProt P36888); test: flow cytometry, biotinylated antibody 10 ug/ml + Streptavidin-PE, OCI-AML2 cells (AML)
[5] = target: FLT3 on the cell surface (human leukemia cell lines and patient cells) (human) (UniProt P36888); test: flow cytometry, biotinylated antibody 10 ug/ml + Streptavidin-PE, MV-4-11 cells (AML)
[6] = target: FLT3 on the cell surface (human leukemia cell lines and patient cells) (human) (UniProt P36888); test: flow cytometry, biotinylated antibody 10 ug/ml + Streptavidin-PE, SEM cells (B-ALL)
[7] = target: FLT3 on the cell surface (human leukemia cell lines and patient cells) (human) (UniProt P36888); test: flow cytometry, biotinylated antibody 10 ug/ml + Streptavidin-PE, MOLM-13 cells (AML)
[8] = target: FLT3 on the cell surface (human leukemia cell lines and patient cells) (human) (UniProt P36888); test: flow cytometry, biotinylated antibody 10 ug/ml + Streptavidin-PE, NALM-1 cells (CML)
[9] = target: FLT3 on the cell surface (human leukemia cell lines and patient cells) (human) (UniProt P36888); test: flow cytometry, biotinylated antibody 10 ug/ml + Streptavidin-PE, PL-21 cells (AML)
[10] = target: FLT3 on the cell surface (human leukemia cell lines and patient cells) (human) (UniProt P36888); test: flow cytometry, biotinylated antibody 10 ug/ml + Streptavidin-PE, THP-1 cells (AML)
[11] = target: FLT3 on the cell surface (human leukemia cell lines and patient cells) (human) (UniProt P36888); test: flow cytometry, biotinylated antibody 10 ug/ml + Streptavidin-PE, RS4;11 cells (B-ALL)
[12] = target: FLT3 on the cell surface (human leukemia cell lines and patient cells) (human) (UniProt P36888); test: flow cytometry, biotinylated antibody 10 ug/ml + Streptavidin-PE, EOL-1 cells (AML)
[13] = target: T1, FLT3 on the cell surface (human leukemia cell lines and patient cells) (human, UniProt P36888 27-993); test: flow cytometry, biotinylated antibody 10 ug/ml + Streptavidin-PE, NALM-1 cells (CML)
T1 construct: Endogenous or recombinant FLT3 on cells; also called Fms like tyrosine kinase 3 receptor; Flk2
T1 sequence (P36888 27-993 T227M limits assumed): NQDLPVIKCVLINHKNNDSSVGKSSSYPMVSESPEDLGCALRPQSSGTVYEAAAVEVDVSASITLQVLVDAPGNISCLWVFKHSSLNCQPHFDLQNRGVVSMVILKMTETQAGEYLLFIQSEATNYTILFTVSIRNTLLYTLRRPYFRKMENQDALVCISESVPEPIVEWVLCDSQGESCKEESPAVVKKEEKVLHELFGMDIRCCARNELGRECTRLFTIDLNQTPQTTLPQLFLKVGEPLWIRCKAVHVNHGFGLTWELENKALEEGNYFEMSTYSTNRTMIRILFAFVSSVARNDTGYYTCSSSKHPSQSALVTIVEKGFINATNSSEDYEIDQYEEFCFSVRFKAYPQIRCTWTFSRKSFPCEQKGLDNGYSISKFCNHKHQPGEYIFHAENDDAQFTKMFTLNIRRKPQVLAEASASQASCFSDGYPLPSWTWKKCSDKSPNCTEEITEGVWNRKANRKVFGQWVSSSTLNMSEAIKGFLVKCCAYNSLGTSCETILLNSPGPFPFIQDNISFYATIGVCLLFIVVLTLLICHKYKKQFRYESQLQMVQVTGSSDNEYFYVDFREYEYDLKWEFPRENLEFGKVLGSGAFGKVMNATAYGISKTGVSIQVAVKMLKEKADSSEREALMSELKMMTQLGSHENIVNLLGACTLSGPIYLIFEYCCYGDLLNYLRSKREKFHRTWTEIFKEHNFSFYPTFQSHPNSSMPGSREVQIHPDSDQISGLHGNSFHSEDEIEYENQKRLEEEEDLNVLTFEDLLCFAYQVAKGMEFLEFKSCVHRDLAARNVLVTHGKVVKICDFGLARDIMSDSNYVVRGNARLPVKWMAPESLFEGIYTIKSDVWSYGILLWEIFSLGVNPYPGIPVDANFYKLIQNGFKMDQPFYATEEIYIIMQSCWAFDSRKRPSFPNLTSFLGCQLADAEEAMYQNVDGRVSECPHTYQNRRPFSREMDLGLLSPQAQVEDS
Protocol: (§1) CHv62.21 was tested for binding to AML and B-ALL cell lines grown in vitro. (See, Table VII). Briefly, CHv62.21 and an isotype matched control antibody were biotinylated using NHS LC biotin. In vitro, exponentially grown cancer cell lines were used for all experiments. Cells were harvested by and washed by centrifugation. Cells were Fc blocked to reduce non-specific binding. Antibodies were diluted to 10 ug/ml final concentration and co-incubated with cells at 4° C. for 1 hour. At the end of the incubation, cells were washed and incubated with secondary detection Streptavidin-PE antibody at a final 1:200 (2.5 ug/ml) dilution for 1 hour at 4° C. After washing un-bound secondary antibody, cells were analyzed by FACS and geometric mean fluorescence was determined and reported. Fluorescence ratio was calculated as follows: Geo mean cHv62.21/Geo mean isotype control=MFR, a measure of fold expression above isotype control.

[14] = target: T1, FLT3 on the cell surface (human …); test: flow cytometry, biotinylated antibody 10 ug/ml + Streptavidin-PE, MOLM-13 cells (AML)
Protocol: as §1

[15] = target: T1, FLT3 on the cell surface (human …); test: flow cytometry, biotinylated antibody 10 ug/ml + Streptavidin-PE, OCI-AML2 cells (AML)
Protocol: as §1

[16] = target: T1, FLT3 on the cell surface (human …); test: flow cytometry, biotinylated antibody 10 ug/ml + Streptavidin-PE, MV-4-11 cells (AML)
Protocol: as §1

[17] = target: T1, FLT3 on the cell surface (human …); test: flow cytometry, biotinylated antibody 10 ug/ml + Streptavidin-PE, RS4;11 cells (B-ALL)
Protocol: as §1

[18] = target: T1, FLT3 on the cell surface (human …); test: flow cytometry, biotinylated antibody 10 ug/ml + Streptavidin-PE, SKM-1 cells (AML)
Protocol: as §1

[19] = target: T1, FLT3 on the cell surface (human …); test: flow cytometry, biotinylated antibody 10 ug/ml + Streptavidin-PE, EOL-1 cells (AML)
Protocol: as §1

[20] = target: T1, FLT3 on the cell surface (human …); test: flow cytometry, biotinylated antibody 10 ug/ml + Streptavidin-PE, MONOMAC-1 cells (AML)
Protocol: as §1

[21] = target: T1, FLT3 on the cell surface (human …); test: flow cytometry, biotinylated antibody 10 ug/ml + Streptavidin-PE, SEM cells (B-ALL)
Protocol: as §1

[22] = target: T1, FLT3 on the cell surface (human …); test: flow cytometry, biotinylated antibody 10 ug/ml + Streptavidin-PE, THP-1 cells (AML)
Protocol: as §1

[23] = target: T1, FLT3 on the cell surface (human …); test: flow cytometry, biotinylated antibody 10 ug/ml + Streptavidin-PE, PL-21 cells (AML)
Protocol: as §1

[24] = target: T1, FLT3 on the cell surface (human …); test: flow cytometry, biotinylated antibody 10 ug/ml + Streptavidin-PE, REH cells (ALL)
Protocol: as §1

Chain of FLT3 on the cell surface (human leukemia cell lines and patient cells) (human) (P36888 27-993 T227M limits assumed): as above

“isotype matched control antibody (Table VI)” was tested, and the Geometric Mean fluorescence [1] was 445, the Geometric Mean fluorescence [2] was 235 and the Geometric Mean fluorescence [3] was 338. The Geometric Mean fluorescence [4] was 329, the Geometric Mean fluorescence [5] was 366 and the Geometric Mean fluorescence [6] was 212. The Geometric Mean fluorescence [7] was 320, the Geometric Mean fluorescence [8] was 262 and the Geometric Mean fluorescence [9] was 570. It also gave a Geometric Mean fluorescence [10] of 474, a Geometric Mean fluorescence [11] of 213 and a Geometric Mean fluorescence [12] of 281.

B1: CHv62.21 MAb (antibody, human IgG1, kappa, V domains shown)
VH: EVQLVESGGGLVRPGGSLRLSCAASGFTFSGYSINWVRQAPGKGLEWVSSISSSSNYIYYADSVKGRFTISRDNAKNSLYLQMNSLRAEDTAVYYCAREGFIAGTTFDAFDIWGQGTMVTVSS
VL: DIQMTQSPSSLSASVGDRVTITCRASQGIRNDLGWYQQKPGKAPKRLIYAASSLQSGVPSRFSGSGSGTEFTLTISSLQPEDFATYYCLQHNGFPYTFGQGTKLEIKR
notes: also called cHv62-1b21.1
B1 was tested, and the “MFR (Geo mean cHv62.21/Geo mean isotype control)” value (“MFR” below) [13] was 49 fold, the “MFR” value [14] was 44 fold and the “MFR” value [15] was 17 fold. The “MFR” value [16] was 8 fold, the “MFR” value [17] was 86 fold and the “MFR” value [18] was 7 fold. The “MFR” value [19] was 50 fold, the “MFR” value [20] was 34 fold and the “MFR” value [21] was 623 fold. The “MFR” value [22] was 42 fold, the “MFR” value [23] was 7 fold and the “MFR” value [24] was 69 fold.
